The target of the experiment is RSV protein F (recombinant or purified F protein) (respiratory syncytial virus (RSV), strain not stated). Nature of the experiment: SPR (Biacore), Fab on recombinant antigen. (In general: In SPR one partner is held on a chip, and binding of the other changes the refractive index at the surface.)

As usually defined, the pKd is −log10 of the Kd, conventionally taken in molar units. As a reminder, the koff is a measure of how fast the partners let go of each other. A word on the kon: it is the second-order rate constant of association.

pKd: −log10 of the molar value.

“Fab fragments derived from commercially available Palivizumab (Synagis)”: the pKd is 8.42, the koff was found to be 0.000757 s⁻¹, the kon was found to be 200000 M⁻¹ s⁻¹ and the t1/2 stood at 15 min.

Values taken from patent US20090137003A1.
